Data taken from patent publication US9976134B2, “Thermolysin variants” (Danisco US Inc., priority 2007, dated 2018).

Assays:
[1] = TIDE 2X 0.78 g/l, 6 gpg, pH 8.2, 30 min at 20°C, A405; variant vs wild-type thermolysin at same protein concentration
Experimental: Thermolysin containing protease samples were obtained from filtered broth of cultures grown in microtiter plates for 3 days at 37° C. with shaking at 280 rpm under humidified aeration.
• Thermolysin containing culture supernatants (˜100-200 μg protein per ml) • TIDE® 2× (nil enzymes) detergent (P&G) • Dilution Buffer (10 mM NaCl, 0.1 mM CaCl2, 0.005% TWEEN®-80) The equipment used was a Biomek FX Robot (Beckman Coulter), a SpectraMAX MTP Reader (type 340; Molecular Devices), and an iEMS incubator/shaker (Thermo/Labsystems). MTPs were obtained from Costar (type 9017). TIDE® 2× Liquid Detergent Preparation (US Conditions):
Milli-Q water was adjusted to 6 gpg water hardness using a (Ca/Mg 3:1) hardness stock solution (282.3 g/L CaCl2.2H20, 130.1 g/L MgCl2.6H2O), 0.78 g/1 detergent TIDE® 2× was added, and the detergent solution was stirred vigorously for at least 15 minutes. Then, 5 mM HEPES was added and the pH adjusted to 8.2.
Microswatches of ¼ inch circular diameter were obtained from CFT (Vlaardingen, The Netherlands).
Two microswatches were placed vertically into each well of a 96-well microtiter plate to expose the whole surface area (i.e., not flat on the bottom of the well).
The incubator was set to 20° C. The filtered culture broth samples were tested at an appropriate concentration by dilution with a mixture of 10 mM NaCl, 0.1 mM CaCl2, 0.005% TWEEN®-80 solution. The detergent solution was prepared as described above. Then, 190 μl of detergent solution were added to each well of the MTP, containing microswatches. To this mixture, 10 μl of diluted enzyme solution were added to each well (to provide a total volume of 200 μl/well). The MTP was covered with a plate seal and placed in an incubator for 30 minutes at 20° C., with agitation at 1400 rpm (iEMS incubator). Following incubation under the appropriate conditions, 100 μl of solution from each well was removed and placed into a new MTP. Subsequently this MTP, containing 100 μl of solution/well, was read at 405 nm in a MTP-Reader. Blank controls, containing 2 microswatches/well and detergent, without the addition of thermolysin containing samples, were also included in the test.
The observed absorbance value was corrected for the blank value (obtained after incubation of microswatches in the absence of added enzyme). The resulting absorbance was a measure for the hydrolytic activity. For each sample (thermolysin or a variant) the performance index (PI) was calculated. The performance index is a comparison of the performance of the variant (actual value) and the standard thermolysin enzyme (theoretical value) at the same protein concentration. In addition, the theoretical values were calculated, using the parameters of the Langmuir equation of the standard enzyme.
C. Stability Assay in the Presence of Detergent
In this example, experiments were conducted to determine the stain removal performance of various singly substituted thermolysin (also referred to herein as Proteinase-T or PrT) variants. As described in Example 1, the stain cleaning performance of thermolysin variants was done utilizing a blood/milk/ink (BMI) microswatch assay. Briefly the cleaning performance of chosen single-substitution thermolysin variants was assessed in a TIDE® 2× microswatch assay.

[2] = Stability assay in 25% TIDE 2X detergent with DTPA (residual Abz-AGLA-Nba protease activity); assay type: physicochemical; conditions: 60 min at 32°C; variant residual AGLA activity divided by wild-type residual activity
Method in brief: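 Thermolysin variant culture supernatants stressed in TIDE 2× detergent, with or without DTPA: 60 min at 32° C or 180 min at 50° C. Residual versus unstressed activity on Abz-AGLA-Nba read kinetically at 25° C (Ex 350/Em 420). Performance index is variant residual activity divided by wild-type thermolysin residual activity.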

[3] = Stability assay in 25% TIDE 2X detergent without DTPA (residual Abz-AGLA-Nba protease activity); assay type: physicochemical; conditions: 180 min at 50°C; variant residual AGLA activity divided by wild-type residual activity
Experimental: The stability of thermolysin and variants thereof was measured after incubation under defined conditions in the presence of 25% TIDE® 2× detergent. The initial and residual activity was determined.
MTPs were obtained from Costar (type 9017) and from Greiner (black plate, type 655076). Test Method Unstressed Conditions:
First, 20 μl thermolysin containing culture supernatant was diluted with 180 μl MES assay buffer. Then, 20 μl diluted supernatant was diluted further with 180 μl MES assay buffer. Subsequently 10 μl of this dilution was transferred into 190 μl AGLA-substrate solution in a pre-warmed plate (Greiner 655076) at 25° C. Any air bubbles present were blown away and the plate was measured according to the AGLA protease assay protocol described below.
First, 20 μl of culture supernatant was diluted with 180 μl 27.5% TIDE®+detergent solution and placed in the iEMS shaker. The plate covered with a plate seal was incubated for a total of 60 minutes at 32° C. at 900 rpm. In addition, 20 μl of culture supernatant was diluted with 180 μl 27.5% TIDE®−solution and placed in the iEMS shaker. This plate covered with a plate seal was incubated for a total of 180 minutes at 50° C. at 900 rpm.
Subsequently after the respective incubations, 20 μl of either of these solutions were diluted with 180 μl MES assay buffer and 10 μl of this dilution were diluted with 190 μl AGLA-substrate solution in a pre-warmed plate (Greiner 655076) at 25° C.
Fluorescence measurements were taken at excitation of 350 nm and emission of 420 nm. The spectrofluorometer software calculated the reaction rates (=slope) of the increase in fluorescence for each well to a linearly regressed line of (milli-) RFU/min. The ratio of the residual and initial AGLA activity was used to express the 25% TIDE® 2× stability as follows: Percentage of residual activity=[slope of stressed]*100/[slope of unstressed]
For each sample (thermolysin and variants thereof) the performance index was calculated by dividing the residual activity of the variant by the residual activity of thermolysin. The performance index compared the stability of the variant and the standard thermolysin enzyme (e.g., wild type or parental enzyme), determined under the same conditions.
In these experiments, the liberation of Abz-AG by protease cleavage of Abz-AGLA-Nba was monitored by fluorescence spectrometry (Ex. 350/Em. 420). The rate of appearance of Abz-AG was a measure of proteolytic activity.
The Abz-AGLA-Nba assay solution was prepared by adding 1 ml of the Abz-AGLA-Nba stock to 19 ml MES substrate buffer and mixed well for at least 2 minutes. Subsequently the thermolysin or variants thereof containing culture supernatants were diluted with MES assay buffer to a concentration of 1-6 μg protein per ml.
The assay was performed by adding 10 μl of diluted protease solution to each well, followed by the addition of 190 μl Abz-AGLA-Nba assay solution that was pre-equilibrated for at least 15 minutes at 25° C. The solutions were vigorously mixed, and the liberation of Abz-AG by protease cleavage of Abz-AGLA-Nba was monitored by fluorescence spectrometry at 25° C. in kinetic mode with excitation set at 350 nm and emission set at 420 nm. The rate of appearance of Abz-AG was a measure of proteolytic activity in the samples. The protease activity was expressed as RFU (relative fluorescence units·min^−1).
As described in Example 1, the stability of thermolysin variants was measured by determining the AGLA activity before and after incubation in the presence of TIDE® 2× heavy duty liquid (HDL) detergent at an elevated temperature. The tables contain the relative stability values compared to wild-type thermolysin, which is the quotient of the variant residual activity divided by the wild-type residual activity. A value greater than one indicates higher stability in the presence of detergent. […]

Molecule	PI (performance index), stain removal [1]	PI (relative stability), 25% TIDE 2X with DTPA [2]	PI (relative stability), 25% TIDE 2X without DTPA [3]
Y151D: single-substitution thermolysin variant (SEQ ID NO:3 numbering) (protein, listed as Geobacillus caldoproteolyticus) ITGTSTVGVGRGVLGDQKNINTTYSTYYYLQDNTRGNGIFTYDAKYRTTLPGSLWADADNQFFASYDAPAVDAHYYAGVTYDYYKNVHNRLSYDGNNAAIRSSVHYSQGYNNAFWNGSQMVYGDGDGQTFIPLSGGIDVVAHELTHAVTDDTAGLIYQNESGAINEAISDIFGTLVEFYANKNPDWEIGEDVYTPGISGDSLRSMSDPAKYGDPDHYSKRYTGTQDNGGVHINSGIINKAAYLISQGGTHYGVSVVGIGRDKLGKIFYRALTQYLTPTSNFSQLRAAAVQSATDLYGSTSQEVASVKQAFDAVGVK	1.08	1.12	
Y151C: single-substitution thermolysin variant (SEQ ID NO:3 numbering) (protein, listed as Geobacillus caldoproteolyticus) ITGTSTVGVGRGVLGDQKNINTTYSTYYYLQDNTRGNGIFTYDAKYRTTLPGSLWADADNQFFASYDAPAVDAHYYAGVTYDYYKNVHNRLSYDGNNAAIRSSVHYSQGYNNAFWNGSQMVYGDGDGQTFIPLSGGIDVVAHELTHAVTDCTAGLIYQNESGAINEAISDIFGTLVEFYANKNPDWEIGEDVYTPGISGDSLRSMSDPAKYGDPDHYSKRYTGTQDNGGVHINSGIINKAAYLISQGGTHYGVSVVGIGRDKLGKIFYRALTQYLTPTSNFSQLRAAAVQSATDLYGSTSQEVASVKQAFDAVGVK		1.25	1.09
Y151S: single-substitution thermolysin variant (SEQ ID NO:3 numbering) (protein, listed as Geobacillus caldoproteolyticus) ITGTSTVGVGRGVLGDQKNINTTYSTYYYLQDNTRGNGIFTYDAKYRTTLPGSLWADADNQFFASYDAPAVDAHYYAGVTYDYYKNVHNRLSYDGNNAAIRSSVHYSQGYNNAFWNGSQMVYGDGDGQTFIPLSGGIDVVAHELTHAVTDSTAGLIYQNESGAINEAISDIFGTLVEFYANKNPDWEIGEDVYTPGISGDSLRSMSDPAKYGDPDHYSKRYTGTQDNGGVHINSGIINKAAYLISQGGTHYGVSVVGIGRDKLGKIFYRALTQYLTPTSNFSQLRAAAVQSATDLYGSTSQEVASVKQAFDAVGVK		1.23	1.17
T006C: single-substitution thermolysin variant (SEQ ID NO:3 numbering) (protein, listed as Geobacillus caldoproteolyticus) ITGTSCVGVGRGVLGDQKNINTTYSTYYYLQDNTRGNGIFTYDAKYRTTLPGSLWADADNQFFASYDAPAVDAHYYAGVTYDYYKNVHNRLSYDGNNAAIRSSVHYSQGYNNAFWNGSQMVYGDGDGQTFIPLSGGIDVVAHELTHAVTDYTAGLIYQNESGAINEAISDIFGTLVEFYANKNPDWEIGEDVYTPGISGDSLRSMSDPAKYGDPDHYSKRYTGTQDNGGVHINSGIINKAAYLISQGGTHYGVSVVGIGRDKLGKIFYRALTQYLTPTSNFSQLRAAAVQSATDLYGSTSQEVASVKQAFDAVGVK		1.03	1.07
T049D: single-substitution thermolysin variant (SEQ ID NO:3 numbering) (protein, listed as Geobacillus caldoproteolyticus) ITGTSTVGVGRGVLGDQKNINTTYSTYYYLQDNTRGNGIFTYDAKYRTDLPGSLWADADNQFFASYDAPAVDAHYYAGVTYDYYKNVHNRLSYDGNNAAIRSSVHYSQGYNNAFWNGSQMVYGDGDGQTFIPLSGGIDVVAHELTHAVTDYTAGLIYQNESGAINEAISDIFGTLVEFYANKNPDWEIGEDVYTPGISGDSLRSMSDPAKYGDPDHYSKRYTGTQDNGGVHINSGIINKAAYLISQGGTHYGVSVVGIGRDKLGKIFYRALTQYLTPTSNFSQLRAAAVQSATDLYGSTSQEVASVKQAFDAVGVK		1.05	1.28
Y151E: single-substitution thermolysin variant (SEQ ID NO:3 numbering) (protein, listed as Geobacillus caldoproteolyticus) ITGTSTVGVGRGVLGDQKNINTTYSTYYYLQDNTRGNGIFTYDAKYRTTLPGSLWADADNQFFASYDAPAVDAHYYAGVTYDYYKNVHNRLSYDGNNAAIRSSVHYSQGYNNAFWNGSQMVYGDGDGQTFIPLSGGIDVVAHELTHAVTDETAGLIYQNESGAINEAISDIFGTLVEFYANKNPDWEIGEDVYTPGISGDSLRSMSDPAKYGDPDHYSKRYTGTQDNGGVHINSGIINKAAYLISQGGTHYGVSVVGIGRDKLGKIFYRALTQYLTPTSNFSQLRAAAVQSATDLYGSTSQEVASVKQAFDAVGVK	1.11	1.10	
